Here are results for 8 proteins from PMC6987189, “Native aggregation is a common feature among triosephosphate isomerases of different species” (Scientific Reports, 2020).

A word on the Km: it is the substrate concentration at which the rate is half of its maximum. In general, kcat refers to the maximal rate divided by the concentration of active sites. By kcat/Km is commonly meant the turnover number divided by the Michaelis constant.

Common to all, as to experiment: purified protein
Common to all, as to conditions: GAP to DHAP direction, 25 °C, 100 mM TEA, 10 mM EDTA, 0.2 mM NADH, GAP 0.3 to 3 mM

Substrate in data set [1]: O=C[C@H](O)COP(=O)(O)O
In kind it is biochemical, Trypanosoma cruzi.

Substrate in data set [2]: O=C[C@H](O)COP(=O)(O)O
Type of data set: biochemical, Thermus thermophilus.

Substrate in data set [3]: O=C[C@H](O)COP(=O)(O)O
Type of data set: biochemical, Taenia solium.

Substrate in data set [4]: O=C[C@H](O)COP(=O)(O)O
Type of data set: biochemical, Leishmania mexicana.

Substrate in data set [5]: O=C[C@H](O)COP(=O)(O)O
Type of data set: biochemical, Entamoeba histolytica.

Substrate in data set [6]: O=C[C@H](O)COP(=O)(O)O
In kind it is biochemical, Trypanosoma brucei.

Substrate in data set [7]: O=C[C@H](O)COP(=O)(O)O
Type of data set: biochemical, Plasmodium falciparum.

Substrate in data set [8]: O=C[C@H](O)COP(=O)(O)O
Type of data set: biochemical, Saccharomyces cerevisiae.

B1: TcTIM (Trypanosoma cruzi) (protein)
chain: MASKPQPIAAANWKCNGSESLLVPLIETLNAATFDHDVQCVVAPTFLHIPMTKARLTNPKFQIAAQNAITRSGAFTGEVSLQILKDYGISWVVLGHSERRLYYGETNEIVAEKVAQACAAGFHVIVCVGETNEEREAGRTAAVVLTQLAAVAQKLSKEAWSRVVIAYEPVWAIGTGKVATPQQAQEVHELLRRWVRSKLGTDIAAQLRILYGGSVTAKNARTLYQMRDINGFLVGGASLKPEFVEIIEATK
notes: recombinant, E. coli BL21(DE3)pLysS, pET-3a, purified; dimer plus higher aggregates
On to B1, for which, in “purified protein [1]”, the Km stood at 440 ± 50 µM, the kcat stood at 6000 ± 230 s⁻¹ and the kcat/Km is 1.36e+07 M⁻¹ s⁻¹.

B2: TtTIM (Thermus thermophilus HB8) (protein)
chain: MRRVLVAGNWKMHKTPSEARVWFAELKRLLPPLQSEAAVLPAFPILPVAKEVLAETQVGYGAQDVSAHKEGAYTGEVSARMLSDLGCRYAIVGHSERRRYHGETDALVAEKAKRLLEEGITPILCVGEPLEVREKGEAVPYTLRQLRGSLEGVEPPGPEALVIAYEPVWAIGTGKNATPEDAEAMHQAIRKALSERYGEAFASRVRILYGGSVNPKNFADLLSMPNVDGGLVGGASLELESFLALLRIAG
notes: recombinant, E. coli BL21(DE3)pLysS, pET-3aHIS (His tag), purified; dimer plus higher aggregates
For the protein B2, in the data set “purified protein [2]”, the Km is 60 ± 10 µM, the kcat is 1788 ± 0.9 s⁻¹ and the kcat/Km amounted to 3e+07 M⁻¹ s⁻¹.

B3: TsTIM (Taenia solium) (protein)
chain: MTRKLFVGGNWKMNGSYSHINTFFDTLQKADTDPNADIVIGVPACYLKYAQDKAPKGIKIAAENCYKVGSGAFTGEISTEMIKDCGCEWVILGHSERRHIFGESNELIGEKVKHALDSGLNVIPCIGELLSEREAGKTNDVCFAQMDAIAKNVPSKEAWDKVVIAYEPVWAIGTGKTATPAQAQEVHKVVRDWIRKHVDAGIADKVRILYGGSVTASNAKDLGTQPDVDGFLVGGASLKPDFITIINARR
notes: recombinant, E. coli BL21(DE3)pLysS, pRSET (His tag), purified; dimer plus higher aggregates
As to B3, in “purified protein [3]”, the Km was 520 ± 30 µM, the kcat was found to be 2460 ± 101 s⁻¹ and the kcat/Km stood at 4.7e+06 M⁻¹ s⁻¹.

B4: LmTIM (Leishmania mexicana) (protein)
chain: MSAKPQPIAAANWKCNGTTASIEKLVQVFNEHTISHDVQCVVAPTFVHIPLVQAKLRNPKYVISAENAIAKSGAFTGEVSMPILKDIGVHWVILGHSERRTYYGETDEIVAQKVSEACKQGFMVIACIGETLQQREANQTAKVVLSQTSAIAAKLTKDAWNQVVLAYEPVWAIGTGKVATPEQAQEVHLLLRKWVSENIGTDVAAKLRILYGGSVNAANAATLYAKPDINGFLVGGASLKPEFRDIIDATR
notes: as for B2
B4: in the data set “purified protein [4]”, the Km was 470 ± 10 µM, the kcat is 2800 ± 164 s⁻¹ and the kcat/Km amounted to 5.9e+06 M⁻¹ s⁻¹.

B5: EhTIM (Entamoeba histolytica HM-1:IMSS) (protein)
chain: MSARKFVVGGNWKCNGTLASIETLTKGVAASVDAELAKKVEVIVGVPFIYIPKVQQILAGEANGANILVSAENAWTKSGAYTGEVHVGMLVDCQVPYVILGHSERRQIFHESNEQVAEKVKVAIDAGLKVIACIGETEAQRIANQTEEVVAAQLKAINNAISKEAWKNIILAYEPVWAIGTGKTATPDQAQEVHQYIRKWMTENISKEVAEATRIQYGGSVNPANCNELAKKADIDGFLVGGASLDAAKFKTIINSVSEKF
notes: recombinant, E. coli BL21(DE3)pLysS, plasmid given as pRET, purified; dimer plus higher aggregates
As for B5, in “purified protein [5]”, the Km came out at 140 ± 30 µM, the catalytic constant (kcat) is 3650 ± 254 s⁻¹ and the kcat/Km is 2.5e+07 M⁻¹ s⁻¹.

B6: TbTIM (Trypanosoma brucei brucei) (protein)
chain: MSKPQPIAAANWKCNGSQQSLSELIDLFNSTSINHDVQCVVASTFVHLAMTKERLSHPKFVIAAQNAIAKSGAFTGEVSLPILKDFGVNWIVLGHSERRAYYGETNEIVADKVAAAVASGFMVIACIGETLQERESGRTAVVVLTQIAAIAKKLKKADWAKVVIAYEPVWAIGTGKVATPQQAQEAHALIRSWVSSKIGADVAGELRILYGGSVNGKNARTLYQQRDVNGFLVGGASLKPEFVDIIKATQ
notes: as for B1
For B6, in “purified protein [6]”, the Michaelis-Menten constant (Km) worked out at 450 ± 50 µM, the kcat is 5170 ± 117 s⁻¹ and the kcat/Km came out at 1.15e+07 M⁻¹ s⁻¹.

B7: PfTIM (Plasmodium falciparum) (protein)
chain: MARKYFVAANWKCNGTLESIKSLTNSFNNLDFDPSKLDVVVFPVSVHYDHTRKLLQSKFSTGIQNVSKFGNGSYTGEVSAEIAKDLNIEYVIIGHFERRKYFHETDEDVREKLQASLKNNLKAVVCFGESLEQREQNKTIEVITKQVKAFVDLIDNFDNVILAYEPLWAIGTGKTATPEQAQLVHKEIRKIVKDTCGEKQANQIRILYGGSVNTENCSSLIQQEDIDGFLVGNASLKESFVDIIKSAM
notes: recombinant, E. coli BL21(DE3)pLysS, pTRC99A, purified (extra low-mass band on SDS-PAGE); dimer plus higher aggregates
B7: in “purified protein [7]”, the Km came out at 810 ± 40 µM, the kcat worked out at 5846 ± 39 s⁻¹ and the kcat/Km came to 7.3e+06 M⁻¹ s⁻¹.

B8: ScTIM (Saccharomyces cerevisiae S288C) (protein)
chain: ARTFFVGGNFKLNGSKQSIKEIVERLNTASIPENVEVVICPPATYLDYSVSLVKKPQVTVGAQNAYLKASGAFTGENSVDQIKDVGAKWVILGHSERRSYFHEDDKFIADKTKFALGQGVGVILCIGETLEEKKAGKTLDVVERQLNAVLEEVKDWTNVVVAYEPVWAIGTGLAATPEDAQDIHASIRKFLASKLGDKAASELRILYGGSANGSNAVTFKDKADVDGFLVGGASLKPEFVDIINSRN
notes: recombinant, E. coli BL21(DE3)pLysS, plasmid pKK233-3, purified; dimer plus higher aggregates
As to B8, in the data set “purified protein [8]”, the Km amounted to 790 ± 100 µM, the kcat is 8690 ± 142 s⁻¹ and the kcat/Km was 1.1e+07 M⁻¹ s⁻¹.
